In patent US12281340B2, “Method of producing N-acyl-amino group-containing compound” (AJINOMOTO CO., INC., priority 2018, dated 2025):

Tests used:
[1] = Synthesis of N-caprinoylamino acid using purified acylamino acid synthetase, UPLC-MS detection; type: biochemical; set-up: key: +: Detected; −: Not detected; details: +ATP
In short: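 Purified enzyme (50 μg) with 5 mM amino acid, 5 mM sodium caprate, 10 mM ATP, 10 mM MgCl2, 1 mM DTT in Tris-HCl pH 8.0, 24 h at 25° C; product detected by UPLC-MS (ESI-negative) as the N-caprinoyl amino acid mass signal.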

[2] = Synthesis of N-lauroylamino acid / N-lauroylamino acid derivative using purified acylamino acid synthetase, UPLC-MS detection; type: biochemical; set-up: key: +: Detected; −: Not detected; details: +ATP

B1: OsGH3-8: probable indole-3-acetic acid-amido synthetase GH3.8 from Oryza sativa, expressed in E. coli with N-terminal His-tag (protein, listed as Oryza sativa)
chain: MAVMTDVSTTGTALRTPAAGAVKEGDVEKLRFIDEMTTNVDAVQERVLGEILGRNAGTEYLTKCGLDGATDRAAFRAKVPVVSYDDLQPYIQRIANGDRSPILSTHPVSEFLTSSGTSAGERKLMPTIMDELDRRQLLYSLLMPVMNLYVPGLDKGKGLYFLFVKSETKTPGGLTARPVLTSYYKSDHFKNRPYDPYHNYTSPTAAILCADAFQSMYAQMVCGLCQRNDVLRLGAVFASGLLRAIRFLQLNWEQLADDIESGELTPRVTDPSVREAVAAILLPDPELAKLIRAECSKGDWAGIITRVWPNTKYLDVIVTGAMAQYIPTLEFYSGGLPMACTMYASSECYFGLNLRPMCDPSEVSYTIMPNMGYFEFLPVDETGAASGDATQLVDLARVEVGREYELVITTYAGLNRYRVGDVLRVTGFHNAAPQFRFVRRKNVLLSIESDKTDEAELQRAVERASALLRPHGASVVEYTSQACTKRIPGHYVIYWELLTKGAGATVVDADTLGRCCLEMEEALNTVYRQSRVADGSIGPLEIRVVRPGTFEELMDYAISRGASINQYKVPRCVTFPPIVELLDSRVVSSHFSPALPHWTPARRSE
modifications: N-terminal His-tag
notes: probable indole-3-acetic acid-amido synthetase GH3.8 from Oryza sativa, expressed in E. coli with N-terminal His-tag
−: signal of molecular weight corresponding to N-lauroyl amino acid derivative ([2]; substrates Sarcosine and sodium laurate)
+: signal of molecular weight corresponding to N-caprinoyl amino acid ([1]; substrates GABA and sodium caprate) | signal of molecular weight corresponding to N-caprinoyl amino acid ([1]; substrates Gly and sodium caprate) | signal of molecular weight corresponding to N-caprinoyl amino acid ([1]; substrates L-Ala and sodium caprate) | signal of molecular weight corresponding to N-caprinoyl amino acid ([1]; substrates L-Arg and sodium caprate) | signal of molecular weight corresponding to N-caprinoyl amino acid ([1]; substrates L-Asn and sodium caprate) | signal of molecular weight corresponding to N-caprinoyl amino acid ([1]; substrates L-Asp and sodium caprate) | signal of molecular weight corresponding to N-caprinoyl amino acid ([1]; substrates L-Cys and sodium caprate) | signal of molecular weight corresponding to N-caprinoyl amino acid ([1]; substrates L-Gln and sodium caprate) | signal of molecular weight corresponding to N-caprinoyl amino acid ([1]; substrates L-Glu and sodium caprate) | signal of molecular weight corresponding to N-caprinoyl amino acid ([1]; substrates L-His and sodium caprate) | signal of molecular weight corresponding to N-caprinoyl amino acid ([1]; substrates L-Ile and sodium caprate) | signal of molecular weight corresponding to N-caprinoyl amino acid ([1]; substrates L-Leu and sodium caprate) | signal of molecular weight corresponding to N-caprinoyl amino acid ([1]; substrates L-Lys and sodium caprate) | signal of molecular weight corresponding to N-caprinoyl amino acid ([1]; substrates L-Met and sodium caprate) | signal of molecular weight corresponding to N-caprinoyl amino acid ([1]; substrates L-Phe and sodium caprate) | signal of molecular weight corresponding to N-caprinoyl amino acid ([1]; substrates L-Pro and sodium caprate) | signal of molecular weight corresponding to N-caprinoyl amino acid ([1]; substrates L-Ser and sodium caprate) | signal of molecular weight corresponding to N-caprinoyl amino acid ([1]; substrates L-Thr and sodium caprate) | signal of molecular weight corresponding to N-caprinoyl amino acid ([1]; substrates L-Trp and sodium caprate) | signal of molecular weight corresponding to N-caprinoyl amino acid ([1]; substrates L-Tyr and sodium caprate) | signal of molecular weight corresponding to N-caprinoyl amino acid ([1]; substrates L-Val and sodium caprate) | signal of molecular weight corresponding to N-caprinoyl amino acid ([1]; substrates β-Ala and sodium caprate) | signal of molecular weight corresponding to N-lauroyl amino acid derivative ([2]; substrates Taurine and sodium laurate)
